Source: publication PMC5098423 (DNA repair, 2015)

Target: T1, Q324H MUTYH (human, UniProt Q9UIF7-3 1-535, Q324H)
T1 sequence (looked up): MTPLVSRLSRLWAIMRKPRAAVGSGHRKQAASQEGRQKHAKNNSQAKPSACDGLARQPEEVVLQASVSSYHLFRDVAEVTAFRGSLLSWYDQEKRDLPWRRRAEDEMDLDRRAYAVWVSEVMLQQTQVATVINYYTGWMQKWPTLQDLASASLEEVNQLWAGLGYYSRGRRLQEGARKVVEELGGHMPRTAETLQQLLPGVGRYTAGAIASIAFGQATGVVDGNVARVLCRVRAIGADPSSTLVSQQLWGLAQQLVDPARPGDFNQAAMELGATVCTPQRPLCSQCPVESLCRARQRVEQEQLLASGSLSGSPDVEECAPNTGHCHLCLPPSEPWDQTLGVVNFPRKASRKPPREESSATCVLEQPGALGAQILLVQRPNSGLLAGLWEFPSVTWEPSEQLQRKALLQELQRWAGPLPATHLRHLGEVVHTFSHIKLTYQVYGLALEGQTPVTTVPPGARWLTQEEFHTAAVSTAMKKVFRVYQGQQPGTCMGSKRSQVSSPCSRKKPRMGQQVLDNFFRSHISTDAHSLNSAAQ
Assay: pull-down

B1: Flag-tagged Hus1 (natural protein, UniProt O60921 1-280, looked up)
chain: MKFRAKIVDGACLNHFTRISNMIAKLAKTCTLRISPDKLNFILCDKLANGGVSMWCELEQENFFNEFQMEGVSAENNEIYLELTSENLSRALKTAQNARALKIKLTNKHFPCLTVSVELLSMSSSSRIVTHDIPIKVIPRKLWKDLQEPVVPDPDVSIYLPVLKTMKSVVEKMKNISNHLVIEANLDGELNLKIETELVCVTTHFKDLGNPPLASESTHEDRNVEHMAEVHIDIRKLLQFLAGQQVNPTKALCNIVNNKMVHFDLLHEDVSLQYFIPALS
With B1 the “percent decrease of the interaction relative to WT MUTYH” value was roughly 20%.
